# B1: Human CAT: Recombinant human catalase obtained from BioVision or Creative BioMart (protein, UniProt P04040 2-527, looked up)
# Catalase: ADSRDPASDQMQHWKEQRAAQKADVLTTGAGNPVGDKLNVITVGPRGPLLVQDVVFTDEMAHFDRERIPERVVHAKGAGAFGYFEVTHDITKYSKAKVFEHIGKKTPIAVRFSTVAGESGSADTVRDPRGFAVKFYTEDGNWDLVGNNTPIFFIRDPILFPSFIHSQKRNPQTHLKDPDMVWDFWSLRPESLHQVSFLFSDRGIPDGHRHMNGYGSHTFKLVNANGEAVYCKFHYKTDQGIKNLSVEDAARLSQEDPDYGIRDLFNAIATGKYPSWTFYIQVMTFNQAETFPFNPFDLTKVWPHKDYPLIPVGKLVLNRNPVNYFAEVEQIAFDPSNMPPGIEASPDKMLQGRLFAYPDTHRHRLGPNYLHIPVNCPYRARVANYQRDGPMCMQDNQGGAPNYYPNSFGAPEQQPSALEHSIQYSGEVRRFNTANDDNVTQVRAFYVNVLNEEQRKRLCENIAGHLKDAQIFIQKKAVKNFTEVHPDYGSHIQALLDKYNAEKPKNAIHTFVQSGSHLAAREKANL
# Test: Catalytic activity of recombinant human CAT versus bovine CAT
# Assay type: biochemical
# Conditions: data normalized to per mg
# Description: In certain embodiments, the nanoparticles are formulated with antioxidant enzymes. For example, the following may be employed for generating SOD and catalase nanoparticles. […] In certain embodiments, SOD is an enzyme that catalyzes the conversion of superoxide to H2O2 and catalase is an enzyme that further degrades H2O2 to molecular oxygen and water. The SOD and catalase for use in the methods and compositions of the invention can be obtained from a variety of sources. In a particular embodiment, the SOD and/or catalase are mammalian SOD and/or mammalian catalase, and/or recombinant catalase. As used herein “mammal” and/or “mammalian” refer to a primate, canine, feline, rodent, and the like. Specific examples of mammalian SOD and/or catalase include human, pig, dog, cat, horse, cow, sheep, goat, rabbit, guinea pig, rats and mice SOD and/or catalase.
molecule,measurement,value
B1,catalytic potency relative to bovine CAT,5.7 fold

# From US20250161220A1, “LYMPHATIC DELIVERY OF NANOPARTICLES TO TREAT NEURODEGENERATIVE, NEUROLOGICAL, AND EYE CONDITIONS” (The Cleveland Clinic Foundation, priority 2022, published 2025)
